In the domain aggregation screens of Martell et al. (2025):

Test: soluble fraction after stress (log2 fold change); higher = more stays soluble; pooled small domains, quantitative proteomics
Conditions: stress: 75 degC
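Note: 20 min heating vs room temperature control held 20 min.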

Row | Sequence | soluble fraction (log2)
1 | HMSSQWWYSAGGERKGPVDFATLRGLYVQGAIDGRTLAWREDMQGWEAVNDIPDLEPLRRAVPPEL | -0.0747
2 | HMSSRSLSYSDFIERVDAGQVSKVVMDGERLVVVGQDGTSYVTIKPPGDQVTENLSRELISKGVEVEAEPQ | -0.0305
3 | HMSSRSLTYSDFIERVDAGQVDAVTLDGERIVIRAKDGNTYVAIKPQGEDVTGSLTRDLIAKGVDVEAEPQ | 0.204
4 | HMSSSDYDVYNKAINLMLNLLKEPKSIEEVTASLNITKSQAITWINRALNEGKIIKTNRPVRYVVNN | -1.39
5 | HMSSSYMVRITTSVLNVRKGPGTNYGITTKVKKGEVYTIVAEEKNGNTTWGKLKSGTGYISLGYTER | -1.21
6 | HMSSSYVYGGNGEIVILSDVSKHLNVYNLNGQKVTDVNLTAGELQRISIATGIYVVGGKKIVV | -3.52
7 | HMSSVGELEVGNIFEGTVNSVRGGKVLLALGNGQMVLAQMDGRVNITPGSSMFFQVKSNDGETVAIRPYTG | -0.247
8 | HMSSWAEGLTERERHTLMWITKGLSNKLIARELGISDSTVKVYVKNLLRKLNVNSRLELAAWVHTHPL | -1.2
9 | HMSSYTQEDVRSGILYMAQLKPRNIEEFVSTLAFSKDDIMDNLSFLVDEGFLKFDADTDTYFNPVPL | -0.374
10 | HMSTADGGYPSIVINDGRVIDTNLQKLGLDRSWLSAELKRQGKGSEKDIFLMTVNQRREVYISVKEA | -1.89
11 | HMSTEAFLGTEGEVVLPLLPDGLGKIRLHVADQDVELPARTGGEPIQIRERVVVVRFRDGIAEVEPAP | 0.0378
12 | HMSTEDYLKTIYILESQQGVHGSDVARMLKVTRPTVSIALKALEQEGYVWMDESRLVHLTDSGLQIAKDT | -0.914
13 | HMSTESAHLGERMLNQALRAMHIEPDQITEAHWQKLIRDYGLKKKSEILTDIGLGKRQNVMVAHQLLAMG | -0.539
14 | HMSTFKSYRGKITASSGVNIRTGAGTNYNKNGALTYNSVVTIVDEKKVSGTTWGKLADGRGWISLDYLKK | -2.04
15 | HMSTGGDLTQRERELLGLMARGLSNQEISKRLTIAMPTVKFHVTNILAKLHADNRTEAVLVALKNKLVAL | -1.02
16 | HMSTINGIEKYLSSGLIPYIGPKTAKRIVEKFGLDTLEIIQYNPERLKEIEGIGDKKLKKIVEAFEEQG | -0.245
17 | HMSTISPNAFNFLQQNLNKFSDDAEGKMIKDILSKTTYDEYVKNEKSKTDFNSLLRRQTTTGDDNLNRYIN | -0.00511
18 | HMSTKEFTIHAGEWSYRVSQKLENLGLVSDAKKFDQYLEDNGYSSKIKIGHYTISKDADFEEIAKEIT | 0.632
19 | HMSTKRGEILEFLKDFSARKGYAPSVREIMQAVGLKSTASVHYHLSELHKAGLITVDGTKNRAISLA | -1.11
20 | HMSTMKSKWFVSSNPIAGVMKYQAQRKKDVNAVDSSENREASGQWYTDKEEAQAIVDKLNAEEQIKEAGK | -0.0426
21 | HMSTMLPFVMRELVELVMKKKALPLGDALYYIYSSKLYKSLLDKSTKLWYSSTLSLYETLEKEKTEEKRRY | -2.04
22 | HMSTMTDAQRHLFANKLSQLPEMGKYSHGTESYQQFAVRIAEMLQTPKKFKELYPYLQKVGFKA | -0.379
23 | HMSTNYVQVLRAALNGVSGRKLAQQYRVSRDTVAILLRQAKIQGWQRAEDLENITEEDLVALLSG | -2.43
24 | HMSTPLPTGLPRGTIIEYTVQTDETLAIIAAKFNSTVDDIMTRNKITDPNTIYAGQILKVAINLVTP | -1.62
25 | HMSTPVPIEGQPTENLNLRDQPSTSGKILTTIPKGKTVTILSEKNANGWYKVSYNGKTGYVSGSYFKVTK | 0.916
26 | HMSTSERLKQVMEVKGFNLKTFSEQADIPYRTLQNYILTNREPSAESLAKLHSQLGINLNWLMSGKGEMF | -0.685
27 | HMSTSIADNSSITYKVRKGDSLASIAKRHGVNINDVMRWNSVITKASQIQPGDMLTLYVRDS | 0.148
28 | HMSTTALLEKMVRYIRTLPVISQVVLSLHYYRGMELREIASELDITESRASQLHTTAVLGIRDLLSSY | -3.11

Row | Sequence | soluble fraction (log2)
29 | HMSTTGIVKWFNEEKGFGFITQDQGGADVFVHYRAIASEGFKTLAEGQKVSFEVEQGQKGLQAANVQA | 0.333
30 | HMSTTHLTASVIKDKVNVRSEADSQNGAIIDKARTGERLLVTDYGNKWTGIVLPDGKRGYIMTEYLQF | -0.114
31 | HMSTTSYTQFMEDAKAGKIARVDIKGREITVTPTEGSRYVITSPGDLWMVDDLRKDGVQVYGPP | 0.0558
32 | HMSTTYLNEGDRITLTDSVNIRTSMSETADRVGLAYQGDVVTVIMSYAEGWTKVSWNGQTGYAKTEYL | -1.52
33 | HMSTVIENVFKNFEVYEIKKGDTFYNIEKRFGVNRQELLVLNPELKEGLKLGMVLKIKEIIP | -3.02
34 | HMSTYTETETAYLKAYSAAGVDGKISDSERGILNMTAEALGITVERTTELEAMFNLTVEEEA | -0.0838
35 | HMSVDIWTGAQTGNIEAVKQHLADGVDVNSKSDIGRTALDVAIAFKQPLITDLLRKHGGKTRDELKAAE | ≥ 1.04
36 | HMSVEVADITRAYYEGVGFEWWIRSVRLDPNELIVDNDDEGKLYRVPFEINGEEVTFGDPVEVKIRYE | -0.995
37 | HMSVFGDNVARLRAEHGMSQRALAERLEITNGTVAAWESRDTLPDYDRIRQIAEIFDVPIPQLFAKYIP | -1.54
38 | HMSVISVETAKSKALAHAGLTASKVTFIENKLEWDDGRQVYDIEFYTSDYKEYDYTIDAVSGQVLEFDY | -1.67
39 | HMSVKLMEVKGASTVVSRQVREAVSIVFPTSSMRLDLVALKARIEGVDAVKRADVYLRNGILEIQIDER | -2.11
40 | HMSVKLYPNPTRSVTTFATDVDKWYLYDNQGKLVSEGNTKTIDVTAFPVGIYFVKTIKGNNSTFVKLIV | -2.14
41 | HMSVLNLQTDIPKKYTDVLGTSVKGRLNTLVHNVIINSVDRPVIQMSEEVHEAMQGLRIFMFENVYRNPV | 0.187
42 | HMSVLSEQIKEQLMEDIFHKKYKAGDRIVESALARELGVSQASVREALRSLIAMGFLENEPFKGITVR | -0.000514
43 | HMSVNAPMPGKIVNVLVSEGQKVNSGDVLLILEAMKMQNEIAATQAGTVKAINVAAGQSVKVGDALVN | -0.0534
44 | HMSVPQENKDLLGRSIEIFYAGKTVEAKVTDTGALAPLGRALDLSPATWRAFGASSISDWGVRGVFYRFVA | 0.212
45 | HMSVSTGTITGSVVNLREEPNTSSKVLDKLPKDTVVYVLSASGEWYNVSYGDKTGWVYGEYLA | -0.737
46 | HMSVTSEIGAKIKYFRKSKHFSLQEMADLLYKSKSTLSKYENGQISIDIETLYAIAKVLGVHVEQLLYSEP | -5.12
47 | HMSVTSIEGRVVYDENANKIGIAKQVGIDSTQSMVLVLTKNDGTEGSISWNNIKKIGEIILLGN | -0.908
48 | HMSWAGRRSLAALEARYRDETGISNLKIKHNGVLGYHIEVPSKSADKLMAPDSGFTHRQTLAGAVR | 0.228
49 | HMSYDAINGYEPSDLRGSLTLEQTASMLNLPLTDVYARLGLPANYPSGATLKDGAADMGMGLSDFKHQLF | -0.121
50 | HMSYLDTLPGRRVAAQGAITGDAGTLAVDGDTWSARVEPGAPDVAPGDEVTVLRIDGATLVVRPLP | 0.0276
51 | HMSYPFSEDALKEKIREYLKHNRSINRKVLEAEFHIRKQTALNWLKKLEKSGFLIKEGSRNAPVYFLAE | -1.83
52 | HMSYQADEIKEKLIDILQNQKTGLSGLEISERIGINRITMTKYLQVFAAEGFIKQKNIGNVIIWFIEDGTE | -1.05
53 | HMSYTYPVARLNHIKGKWYVLVSVPAHLRHLFPNQRDLRRSTGTDDESLAKRKQHALAQEIYDLFD | -0.653
54 | HMTAFEPYLVKVMASVLNIRKGPGTSYAITGQIKDKGTYTIVAESGSWGKLKSGAGWISLSYTSKAGKA | -1.82
55 | HMTAFSEQLIKLRKQKGLSQEQLGAAVGVTRQTVSKWELGDTTPELGKLVQLSDYFQLSIDELVGH | -0.703
